The text below walks through data of patent publication US20200223938A1 (published 2020).

In this experiment the target is monomeric FcRn (Sinobiological inc., CT009-H08H) (human;, UniProt P55899 24-297; P61769 21-119). As to the kind of experiment: Biacore SPR; pH 6.0. In general terms: Surface plasmon resonance follows binding to a sensor surface in real time, without labels.
Sequence of monomeric FcRn (Sinobiological inc., CT009-H08H) (P55899 24-297, chain 1 of 2): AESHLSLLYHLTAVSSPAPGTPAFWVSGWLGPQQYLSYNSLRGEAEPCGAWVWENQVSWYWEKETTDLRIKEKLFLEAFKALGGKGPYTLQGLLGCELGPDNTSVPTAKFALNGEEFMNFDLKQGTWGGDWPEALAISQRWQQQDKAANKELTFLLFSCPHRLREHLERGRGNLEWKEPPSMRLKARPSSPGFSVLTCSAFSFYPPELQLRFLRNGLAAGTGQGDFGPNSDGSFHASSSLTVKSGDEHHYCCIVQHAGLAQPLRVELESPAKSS
Sequence of monomeric FcRn (Sinobiological inc., CT009-H08H) (P61769 21-119, chain 2 of 2): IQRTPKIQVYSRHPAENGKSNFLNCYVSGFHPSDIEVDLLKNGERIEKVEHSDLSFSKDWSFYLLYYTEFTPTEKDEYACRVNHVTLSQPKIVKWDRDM

B1: EFc88 (protein)
chain: DKTHTCPPCSAPELLGGPSVFLFPPKPKDTLMISRTPEVTCVVVDVSHEDPEVKFNWYVDGVEVHNAKTKPREELYNSTYRVVSVLTVLHQDWLNGKEYMCKVSNKALPAPIEKTISKAKGQPREPQVYTLPPSREELTKNQVSLTCLVKGFYPSDIAVEWESNGQPENNYKTTPPVLDSDGSFILYSKLTVDKSRWQQGNVFSCSVLHEALHNHYTQKSLSLSPGK
As to B1, the affinity, expressed as Kd, was 6.99 nM.

B2: trastuzumab Fc variant EFc82 (antibody)
Fc: DKTHTCPPCQAPELLGGPSVFLYPPEPKDTLMISRTPEVTCVVVDVSHEDPEVKFNWYVDGVEVHNAKTKPREEQYNSTYRVVSVLTVLHQDWLNGKEYKCKVSNKALPAPIEKTISKAKGQPREPQVYTLPPSRDELTKSQVSLTCLVKGFYPSDIAVEWESIGQPENNYKTTPPVLDSDGSFFLYSKLTVDKSRWQQGNVFSCSVLHEALHNHYTQKSLSLSPGK
With B2, binding was put at a Kd of 6.68 nM.
